The record followed here is patent US20180272008A1.

Ends that are not written are not given here.

This assay has as its target IgE of patient serum 3 (human). The assay is described as follows: ELISA: serum IgE captured on an anti-human IgE coated plate, epitope 2 peptide (FITC-tagged) titrated, fluorescence (RFU). (An ELISA detects its analyte on a solid surface through an enzyme-linked reagent.)

B1: FITC-tagged epitope 2 peptide of Ara h 2 (peptide)
peptide: ERDPYSPSQDPYSPS
modifications: also: FITC tag, site not given here
In the case of B1, the 50% effective concentration (EC50 (read off the curve)) was determined as 10 µM. That is a double-digit micromolar value.

Broadly, the EC50 (read off the curve) is the concentration giving half of the maximal effect. A high value points to weaker potency.
